Columns and labels:
[1] = biological target: the molecule itself; test: ITC
[2] = biological target: the molecule itself; test: SEC
[3] = biological target: the molecule itself; test: AUC

B1: MSMEG_2027, full-length (as used in the solution studies) (enzyme)
chain: MTDAELSPTDWVREQTERILEQGTTDGVHVLDRPIVLFTTTGAKSGKKRYVPLMRVEENGKYAMVASKGGDPKHPSWYFNVKANPTVSVQDGDKVLPDRTARELEGEEREHWWKLAVEAYPPYAEYQTKTDRLIPVFIVE
[1]
  Kd: ~1.2 µM
[2]
  stoichiometry N: 2
[3]
  Kd: ~8 µM
